The source of these data is the supplement of paper PMC10567573.

B1: C8orf76 (parent)
chain: LYLQLAICSSLQNLEKTIFCLQKL
B2: ZNF449 (parent)
chain: YRHQRLHTGERPYECTVCKKRFTR
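Further: lentivirally expressed fusions sorted by FACS into six bins by GFP to DsRed ratio, PSI derived from sequencing read proportions per bin multiplied by bin number.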

In the first series the parent is B1. Briefly: protein stability index of a GFP-peptide fusion (GPS, HEK-293T) (PSI 1-6); higher = more stable. Conditions: c terminus: a fixed tail appended.
LYLQLAIESSLQNLEKTIFCLQKL: the protein stability index amounted to 3.54.

Consider LYLQLAIFSSLQNLEKTIFCLQKL, for which the protein stability index was 1.94.

Take SYLQLAICSSLQNLEKTIFCLQKL: the protein stability index amounted to 3.44.

As to IYLQLAICSSLQNLEKTIFCLQKL, the protein stability index was found to be 2.57.

As for DYLQLAICSSLQNLEKTIFCLQKL, the protein stability index amounted to 4.64.

In the case of NYLQLAICSSLQNLEKTIFCLQKL, the protein stability index is 3.07.

As to VYLQLAICSSLQNLEKTIFCLQKL, the protein stability index came out at 2.57.

As for PYLQLAICSSLQNLEKTIFCLQKL, the protein stability index was 3.08.

For the variant TYLQLAICSSLQNLEKTIFCLQKL, the protein stability index came out at 2.99.

For EYLQLAICSSLQNLEKTIFCLQKL, the protein stability index worked out at 3.38.

Take LYLQLRICSSLQNLEKTIFCLQKL: the protein stability index came out at 3.17.

As to LYLQLMICSSLQNLEKTIFCLQKL, the protein stability index is 3.66.

Turning to LYLQLYICSSLQNLEKTIFCLQKL, the protein stability index came out at 2.03.

As for LYLQLHICSSLQNLEKTIFCLQKL, the protein stability index worked out at 4.38.

Consider LYLQLTICSSLQNLEKTIFCLQKL, for which the protein stability index stood at 3.04.

For LYLQLNICSSLQNLEKTIFCLQKL, the protein stability index is 2.71.

As for LYLQLPICSSLQNLEKTIFCLQKL, the protein stability index stood at 2.9.

Regarding LYLQLIICSSLQNLEKTIFCLQKL, the protein stability index was 2.16.

Take LYLQLCICSSLQNLEKTIFCLQKL: the protein stability index worked out at 2.72.

Take LYLQLVICSSLQNLEKTIFCLQKL: the protein stability index was 1.62.

Consider LYLQLWICSSLQNLEKTIFCLQKL, for which the protein stability index came out at 1.73.

Take LYLQLQICSSLQNLEKTIFCLQKL: the protein stability index was 2.63.

Regarding LYLQLGICSSLQNLEKTIFCLQKL, the protein stability index came out at 1.73.

For LYLQLLICSSLQNLEKTIFCLQKL, the protein stability index was 2.52.

With LYLMLAICSSLQNLEKTIFCLQKL, the protein stability index was found to be 3.43.

In the case of LYLRLAICSSLQNLEKTIFCLQKL, the protein stability index was found to be 4.03.

As for LYLDLAICSSLQNLEKTIFCLQKL, the protein stability index was determined as 2.74.

For the variant LYLCLAICSSLQNLEKTIFCLQKL, the protein stability index turned out to be 5.01.

Take LYLILAICSSLQNLEKTIFCLQKL: the protein stability index is 2.44.

Consider LYLFLAICSSLQNLEKTIFCLQKL, for which the protein stability index is 2.22.

Turning to LYLTLAICSSLQNLEKTIFCLQKL, the protein stability index came out at 2.97.

Regarding LYLALAICSSLQNLEKTIFCLQKL, the protein stability index stood at 1.92.

Take LYLELAICSSLQNLEKTIFCLQKL: the protein stability index turned out to be 1.65.

For the variant LYLKLAICSSLQNLEKTIFCLQKL, the protein stability index was 2.11.

For the variant LYLWLAICSSLQNLEKTIFCLQKL, the protein stability index was found to be 1.41.

For LYLSLAICSSLQNLEKTIFCLQKL, the protein stability index worked out at 4.32.

On to LYLVLAICSSLQNLEKTIFCLQKL, for which the protein stability index was determined as 3.48.

Regarding LYLQGAICSSLQNLEKTIFCLQKL, the protein stability index is 3.09.

For LYLQFAICSSLQNLEKTIFCLQKL, the protein stability index was found to be 3.72.

For LYLQVAICSSLQNLEKTIFCLQKL, the protein stability index amounted to 2.05.

Turning to LYLQRAICSSLQNLEKTIFCLQKL, the protein stability index is 1.92.

Regarding LYLQKAICSSLQNLEKTIFCLQKL, the protein stability index stood at 1.36.

With LYLQCAICSSLQNLEKTIFCLQKL, the protein stability index was 1.79.

Regarding LYLQPAICSSLQNLEKTIFCLQKL, the protein stability index worked out at 2.23.

LYLQNAICSSLQNLEKTIFCLQKL: the protein stability index was 3.62.

As to LYLQWAICSSLQNLEKTIFCLQKL, the protein stability index came to 2.82.

As to LYLQHAICSSLQNLEKTIFCLQKL, the protein stability index was found to be 1.67.

As for LYLQTAICSSLQNLEKTIFCLQKL, the protein stability index came to 2.24.

Turning to LYLQEAICSSLQNLEKTIFCLQKL, the protein stability index was 1.79.

As for LYLQYAICSSLQNLEKTIFCLQKL, the protein stability index worked out at 2.57.

Consider LYLQAAICSSLQNLEKTIFCLQKL, for which the protein stability index worked out at 1.65.

With LYCQLAICSSLQNLEKTIFCLQKL, the protein stability index was 4.32.

Regarding LYNQLAICSSLQNLEKTIFCLQKL, the protein stability index came to 1.34.

Turning to LYAQLAICSSLQNLEKTIFCLQKL, the protein stability index was 3.31.

For the variant LYTQLAICSSLQNLEKTIFCLQKL, the protein stability index worked out at 4.08.

On to LYSQLAICSSLQNLEKTIFCLQKL, for which the protein stability index was 3.2.

As for LYRQLAICSSLQNLEKTIFCLQKL, the protein stability index was determined as 4.15.

Take LYPQLAICSSLQNLEKTIFCLQKL: the protein stability index came out at 1.81.

As for LYEQLAICSSLQNLEKTIFCLQKL, the protein stability index came out at 2.56.

Consider LYVQLAICSSLQNLEKTIFCLQKL, for which the protein stability index is 3.09.

On to LYDQLAICSSLQNLEKTIFCLQKL, for which the protein stability index is 2.73.

For LKLQLAICSSLQNLEKTIFCLQKL, the protein stability index turned out to be 2.42.

For LNLQLAICSSLQNLEKTIFCLQKL, the protein stability index came to 2.69.

Turning to LPLQLAICSSLQNLEKTIFCLQKL, the protein stability index is 1.62.

LWLQLAICSSLQNLEKTIFCLQKL: the protein stability index was 3.02.

As for LFLQLAICSSLQNLEKTIFCLQKL, the protein stability index was 2.5.

As for LRLQLAICSSLQNLEKTIFCLQKL, the protein stability index was 4.79.

As for LDLQLAICSSLQNLEKTIFCLQKL, the protein stability index is 1.07.

In the case of LELQLAICSSLQNLEKTIFCLQKL, the protein stability index amounted to 3.3.

LILQLAICSSLQNLEKTIFCLQKL: the protein stability index amounted to 3.14.

Turning to LSLQLAICSSLQNLEKTIFCLQKL, the protein stability index worked out at 2.26.

Regarding LTLQLAICSSLQNLEKTIFCLQKL, the protein stability index worked out at 2.08.

Consider LVLQLAICSSLQNLEKTIFCLQKL, for which the protein stability index turned out to be 3.11.

Consider LCLQLAICSSLQNLEKTIFCLQKL, for which the protein stability index worked out at 1.42.

In the case of LHLQLAICSSLQNLEKTIFCLQKL, the protein stability index was found to be 3.59.

LYLQLAMCSSLQNLEKTIFCLQKL: the protein stability index amounted to 2.24.

As to LYLQLANCSSLQNLEKTIFCLQKL, the protein stability index came out at 2.23.

With LYLQLAYCSSLQNLEKTIFCLQKL, the protein stability index is 3.21.

Take LYLQLAGCSSLQNLEKTIFCLQKL: the protein stability index was determined as 3.86.

Regarding LYLQLATCSSLQNLEKTIFCLQKL, the protein stability index is 2.36.

As to LYLQLAHCSSLQNLEKTIFCLQKL, the protein stability index is 2.71.

Take LYLQLASCSSLQNLEKTIFCLQKL: the protein stability index turned out to be 1.26.

Variants of B2 are the subject of the next series. The description is as above. The settings on record: c terminus: a fixed tail appended.
Turning to YRHQRLHTGERPYECTVCWKRFTR, the protein stability index turned out to be 2.07.

Consider YRHQRLHTGERPYECTVCPKRFTR, for which the protein stability index was determined as 2.69.

Consider YRHQRLHTGERPYECTVCMKRFTR, for which the protein stability index is 2.12.

Take YRHQRLHTGERPYECTVCYKRFTR: the protein stability index came to 1.95.

As to YRHQRLHTGERPYECTVCRKRFTR, the protein stability index amounted to 2.34.

With YRHQRLHTGERPYECTVCLKRFTR, the protein stability index was 2.2.

As for YRHQRLHTGERPYECTVCQKRFTR, the protein stability index turned out to be 2.57.

As for YRHQRLHTGERPYECTVCSKRFTR, the protein stability index was found to be 1.74.

In the case of YRHQRLHTGERPYECTVCTKRFTR, the protein stability index was 2.77.

Take YRHQRLHTGERPYECTVCNKRFTR: the protein stability index came to 2.19.

Take YRHQRLHTGERPYECTVCVKRFTR: the protein stability index worked out at 2.3.

As for YRHQRLHTGERPYECTVCKSRFTR, the protein stability index turned out to be 2.08.
